Measurements taken from US20240043566A1 (SUZHOU TRANSCENTA THERAPEUTICS, published 2024).

B1: 4B6 scFv variant L-CDR1-1 (scFv)
scFv: DIQMTQSPSSLSASVGDRVTITCKASQNVGAIVAWYQQKPGKAPKLLIYSASNRYTGVPSRFSGSGSGTDFTLTISSLQPEDIATYYCQQYSNYPTFGQGTKLEIKGGGGSGGGGSGGGGSQVQLVQSGAEVKKPGASVKVSCKASGYVFTDYYMNWVRQAPGQSLEWMGDINPNNAGTSYNHKFKGRVTVTVDKSISTAYMELSRLRSDDTAVYYCVKWGDGPFAYWGQGTLVTVSS
notes: also called 4B6-L-CDR1-1
B2: 4B6 scFv variant L-CDR1-3 (scFv)
scFv: DIQMTQSPSSLSASVGDRVTITCKASQNVKGAVAWYQQKPGKAPKLLIYSASNRYTGVPSRFSGSGSGTDFTLTISSLQPEDIATYYCQQYSNYPTFGQGTKLEIKGGGGSGGGGSGGGGSQVQLVQSGAEVKKPGASVKVSCKASGYVFTDYYMNWVRQAPGQSLEWMGDINPNNAGTSYNHKFKGRVTVTVDKSISTAYMELSRLRSDDTAVYYCVKWGDGPFAYWGQGTLVTVSS
notes: also called 4B6-L-CDR1-3
B3: 4B6 scFv variant L-CDR1-2 (scFv)
scFv: DIQMTQSPSSLSASVGDRVTITCKASQNVPAAVAWYQQKPGKAPKLLIYSASNRYTGVPSRFSGSGSGTDFTLTISSLQPEDIATYYCQQYSNYPTFGQGTKLEIKGGGGSGGGGSGGGGSQVQLVQSGAEVKKPGASVKVSCKASGYVFTDYYMNWVRQAPGQSLEWMGDINPNNAGTSYNHKFKGRVTVTVDKSISTAYMELSRLRSDDTAVYYCVKWGDGPFAYWGQGTLVTVSS
notes: also called 4B6-L-CDR1-2

target: T1, human PD-L1-Fc (Sino Biological, 70110-D02H) (human, UniProt Q9NZQ7 19-239); assay: BLI, PD-L1-Fc loaded, scFv in solution
T1 construct: also called hPD-L1-Fc; not shown: Fc part
T1 sequence (Q9NZQ7 19-239 limits assumed, stated change not applied): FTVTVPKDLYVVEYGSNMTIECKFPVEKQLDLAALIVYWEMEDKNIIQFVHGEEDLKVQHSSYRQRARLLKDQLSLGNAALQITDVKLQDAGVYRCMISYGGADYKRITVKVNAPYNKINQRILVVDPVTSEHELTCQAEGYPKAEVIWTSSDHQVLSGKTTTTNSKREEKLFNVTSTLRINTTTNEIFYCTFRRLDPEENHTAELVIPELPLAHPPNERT

Row | Binder | Fold increase (over L-CDR1-WT) [fold]
1 | B1 | 4.08
2 | B2 | 10.1
3 | B3 | 4.96
